From article PMC4679524

Tests used:
[1] = target: GST-LE, dual phosphorylated (CK2 plus Syk, 2 added phosphates) (encephalomyocarditis virus (EMCV)); test: SEC
[2] = target: GST-LE, singly phosphorylated (reacted with CK2, 1 added phosphate) (encephalomyocarditis virus (EMCV)); test: pull-down
[3] = target: GST-LE, dual phosphorylated (CK2 plus Syk, 2 added phosphates) (encephalomyocarditis virus (EMCV)); test: pull-down

Chain of GST-LE, dual phosphorylated (CK2 plus Syk, 2 added phosphates) (encephalomyocarditis virus (EMCV)) (P03304 1-67 limits assumed): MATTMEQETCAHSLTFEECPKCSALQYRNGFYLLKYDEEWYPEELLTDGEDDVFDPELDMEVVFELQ
Chain of GST-LE, singly phosphorylated (reacted with CK2, 1 added phosphate) (encephalomyocarditis virus (EMCV)) (P03304 1-67 limits assumed): as above

Substance: rCrm1 (recombinant His-tagged murine Crm1) (from UniProt Q6P5F9 1-1071) (natural protein)
- stoichiometry N [1]: 1
- percent stronger rCrm1 signal per unit of GST(-LE) than without phosphate [2]: 50 to 70%
- percent stronger rCrm1 signal per unit of GST(-LE) than without phosphate [3]: 50 to 70%
